Measurements published in patent publication US20140056907A1 (Regeneron, published 2014).

T1: human ASIC1 (human, UniProt P78348 1-528)
T1 sequence: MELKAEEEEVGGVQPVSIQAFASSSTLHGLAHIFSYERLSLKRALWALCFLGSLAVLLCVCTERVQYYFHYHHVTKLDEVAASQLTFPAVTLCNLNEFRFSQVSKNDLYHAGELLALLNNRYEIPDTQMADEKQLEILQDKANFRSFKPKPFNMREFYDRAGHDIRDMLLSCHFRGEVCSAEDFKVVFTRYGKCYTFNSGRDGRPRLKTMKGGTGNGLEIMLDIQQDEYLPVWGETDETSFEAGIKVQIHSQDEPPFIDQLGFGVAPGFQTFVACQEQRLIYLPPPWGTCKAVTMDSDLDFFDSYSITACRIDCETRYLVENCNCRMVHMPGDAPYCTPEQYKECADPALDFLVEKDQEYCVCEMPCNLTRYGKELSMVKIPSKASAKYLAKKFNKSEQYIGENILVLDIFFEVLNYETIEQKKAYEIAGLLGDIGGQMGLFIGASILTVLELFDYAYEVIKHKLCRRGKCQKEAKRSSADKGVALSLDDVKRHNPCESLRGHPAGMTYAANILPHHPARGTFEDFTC

T2: mouse ASIC1a (mouse, UniProt Q6NXK8 1-526)
T2 construct: whole, on cells; Expressed on stably transfected 3T3 cells (3T3/mASIC1a); also called mASIC1a
T2 sequence (looked up): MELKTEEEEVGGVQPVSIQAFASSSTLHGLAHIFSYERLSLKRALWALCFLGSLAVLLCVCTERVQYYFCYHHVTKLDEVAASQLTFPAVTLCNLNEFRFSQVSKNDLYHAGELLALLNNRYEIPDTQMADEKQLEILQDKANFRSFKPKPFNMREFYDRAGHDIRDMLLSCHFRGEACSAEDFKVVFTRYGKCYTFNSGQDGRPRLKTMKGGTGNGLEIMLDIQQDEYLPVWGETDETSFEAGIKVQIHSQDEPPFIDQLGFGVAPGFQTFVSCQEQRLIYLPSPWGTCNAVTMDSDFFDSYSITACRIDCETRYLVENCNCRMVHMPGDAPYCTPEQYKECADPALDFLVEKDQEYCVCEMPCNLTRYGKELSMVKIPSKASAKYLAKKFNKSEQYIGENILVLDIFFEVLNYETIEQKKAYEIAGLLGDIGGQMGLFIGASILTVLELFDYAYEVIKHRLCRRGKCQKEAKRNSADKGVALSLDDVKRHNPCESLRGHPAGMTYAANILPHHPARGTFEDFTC

T3: human ASIC3 (human, UniProt Q9UHC3 1-531)
T3 construct: whole, on cells; Expressed on 3T3 cells (3T3/hASIC3) or HEK293 cells (HEK/hASIC3-QCells); also called hASIC3
T3 sequence (looked up): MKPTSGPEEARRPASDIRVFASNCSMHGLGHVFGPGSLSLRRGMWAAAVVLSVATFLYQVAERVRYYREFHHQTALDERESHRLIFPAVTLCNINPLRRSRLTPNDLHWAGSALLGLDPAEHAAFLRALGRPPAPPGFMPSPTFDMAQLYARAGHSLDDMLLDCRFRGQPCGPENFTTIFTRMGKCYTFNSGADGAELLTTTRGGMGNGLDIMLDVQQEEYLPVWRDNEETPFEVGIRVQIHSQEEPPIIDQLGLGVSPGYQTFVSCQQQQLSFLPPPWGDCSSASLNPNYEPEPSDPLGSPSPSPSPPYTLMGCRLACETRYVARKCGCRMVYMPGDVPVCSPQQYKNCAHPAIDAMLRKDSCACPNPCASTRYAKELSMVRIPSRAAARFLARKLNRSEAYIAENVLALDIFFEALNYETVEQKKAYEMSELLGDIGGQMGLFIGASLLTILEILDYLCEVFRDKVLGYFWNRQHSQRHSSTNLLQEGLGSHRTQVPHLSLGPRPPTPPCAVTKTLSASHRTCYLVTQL

T4: human ASIC1/ASIC3 channels (co-expressed human ASIC1a and human ASIC3) (human, UniProt Q9UHC3 1-531)
T4 construct: whole, on cells; 3T3 cells co-expressing both subunits; also called 3T3/hASIC1/3; 3T3-hASIC1/ASIC3
T4 sequence 1: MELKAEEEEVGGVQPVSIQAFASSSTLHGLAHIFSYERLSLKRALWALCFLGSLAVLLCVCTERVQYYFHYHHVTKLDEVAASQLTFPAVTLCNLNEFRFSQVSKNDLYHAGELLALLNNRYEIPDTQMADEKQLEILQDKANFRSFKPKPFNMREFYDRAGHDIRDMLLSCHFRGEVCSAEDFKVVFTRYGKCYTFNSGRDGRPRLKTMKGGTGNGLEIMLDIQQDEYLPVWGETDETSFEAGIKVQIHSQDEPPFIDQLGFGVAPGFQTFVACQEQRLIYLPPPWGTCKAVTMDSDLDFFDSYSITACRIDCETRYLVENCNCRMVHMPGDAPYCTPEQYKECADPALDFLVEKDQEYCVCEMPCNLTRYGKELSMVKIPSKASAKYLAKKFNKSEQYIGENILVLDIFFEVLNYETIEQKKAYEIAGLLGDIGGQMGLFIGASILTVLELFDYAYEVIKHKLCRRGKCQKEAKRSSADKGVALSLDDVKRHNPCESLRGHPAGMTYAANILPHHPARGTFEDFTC
T4 sequence 2: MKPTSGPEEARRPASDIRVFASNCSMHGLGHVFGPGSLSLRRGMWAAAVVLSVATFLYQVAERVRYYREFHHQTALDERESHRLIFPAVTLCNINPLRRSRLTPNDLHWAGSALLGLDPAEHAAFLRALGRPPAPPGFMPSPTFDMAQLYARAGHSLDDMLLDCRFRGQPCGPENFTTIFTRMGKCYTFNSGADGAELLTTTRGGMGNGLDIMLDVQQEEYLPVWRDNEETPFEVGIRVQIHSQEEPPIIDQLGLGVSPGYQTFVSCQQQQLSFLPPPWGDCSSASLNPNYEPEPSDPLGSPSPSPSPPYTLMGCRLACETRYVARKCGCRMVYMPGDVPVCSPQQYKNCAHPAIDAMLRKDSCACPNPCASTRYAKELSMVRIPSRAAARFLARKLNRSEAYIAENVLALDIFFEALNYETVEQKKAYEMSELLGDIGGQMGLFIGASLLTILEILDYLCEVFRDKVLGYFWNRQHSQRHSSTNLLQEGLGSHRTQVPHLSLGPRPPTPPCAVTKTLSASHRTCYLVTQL


Tests used:
human ASIC1 [1] = target: T1, human ASIC1; assay: cell-based or functional assay
human ASIC1 [2] = target: T1, human ASIC1; assay: FACS titration, 3T3/hASIC1 cells
Protocol: To perform the FACS binding experiments, adherent cells were collected using 1 mM EDTA in PBS, then washed, and re-suspended in cold PBS containing 5% FBS. For each binding experiment, each anti-ASIC1 antibody ([…] or ND7 cells) was added to 250,000 cells in 500 μL of PBS with 5% FBS. After incubation for 20 minutes at room temperature, a secondary antibody which recognizes human Fc (Cat. No. 109-136-098, Jackson ImmunoResearch Laboratories, Inc., West Grove, Pa.) or mouse Fc (Cat. No. 550826, BD Biosciences, San Jose, Calif.) and is conjugated to allophycocyanin, was then added to the cell mixture at a final concentration of 13.3 nM. After incubating for 20 minutes on ice, the cells were washed and resuspended in PBS containing 5% FBS, then sorted and analyzed on a flow cytometer (FACSCalibur, BD Biosciences, San Jose, Calif.) to determine relative binding by the candidate antibodies to the tested cell lines. Histograms of cells stained with anti-ASIC1 antibodies were compared with those of cells stained with secondary antibody alone. Percentage of ASIC1 signal over secondary antibody alone was calculated using FlowJo software (Tree Star, Ashland, Oreg.).

human ASIC1 [3] = target: T1, human ASIC1; assay: cell-based or functional assay; remark: listed apart in the source
mouse ASIC1a = target: T2, mouse ASIC1a; assay: FACS, 3T3/mASIC1a cells
From the text: To further characterize anti-ASIC1 antibodies, their ability to bind either (a) a mouse fibroblast 3T3 cell line stably transfected to overexpress full length human ASIC1 (3T3/hASIC1; amino acids 1-528 of NCBI accession number NP_{—}001086.2 [SEQ ID NO:401]), (b) a 3T3 cell line stably transfected to over express full length mouse ASIC1a (3T3/mASIC1a; amino acids 1-526 of NCBI accession number NP_{—}033727), or (c) a ND7 cell line (ECACC, #92090903) that is a fusion cell line of mouse neuroblastoma and rat dorsal root ganglia that endogenously expresses rat ASIC1, was determined using flow cytometry (FACS). ND7 cells were differentiated by replacing the culture media with low-serum media (0.5% FBS) containing 1 mM dibutyryl-cAMP (Cat. No. sc-201567A, Santa Cruz Biotechnology, Inc., Santa Cruz, Calif.). FACS binding was tested for some antibodies on both undifferentiated ND7 cells and differentiated ND7 cells.
To perform the FACS binding experiments, adherent cells were collected using 1 mM EDTA in PBS, then washed, and re-suspended in cold PBS containing 5% FBS. For each binding experiment, each anti-ASIC1 antibody (at final concentrations of 10 nM of purified antibodies or 3.3 nM for antibody supernatants for binding to 3T3/hASIC1 cells and 5 nM for binding to 3T3/mASIC1a or ND7 cells) was added to 250,000 cells in 500 μL of PBS with 5% FBS. After incubation for 20 minutes at room temperature, a secondary antibody which recognizes human Fc (Cat. No. 109-136-098, Jackson ImmunoResearch Laboratories, Inc., West Grove, Pa.) or mouse Fc (Cat. No. 550826, BD Biosciences, San Jose, Calif.) and is conjugated to allophycocyanin, was then added to the cell mixture at a final concentration of 13.3 nM. After incubating for 20 minutes on ice, the cells were washed and resuspended in PBS containing 5% FBS, then sorted and analyzed on a flow cytometer (FACSCalibur, BD Biosciences, San Jose, Calif.) to determine relative binding by the candidate antibodies to the tested cell lines. Histograms of cells stained with anti-ASIC1 antibodies were compared with those of cells stained with secondary antibody alone. Percentage of ASIC1 signal over secondary antibody alone was calculated using FlowJo software (Tree Star, Ashland, Oreg.).

human ASIC1 [4] = target: T1, human ASIC1; assay: cell-based or functional assay; remark: listed apart in the source
human ASIC3 = target: T3, human ASIC3; assay: FACS, 3T3/hASIC3 cells, 10 nM antibody
From the text: (§1) For these experiments, four cell lines were constructed: (a) a mouse fibroblast 3T3 cell line stably transfected to overexpress full length human ASIC3 (3T3/hASIC3; amino acids 1-531 of NCBI accession number NP_{—}004760.1), (b) a 3T3 cell line stably transfected to co-express full length human ASIC1a and human ASIC3 (3T3/hASIC1/3; amino acids 1-528 of NCBI accession number NP_{—}001086.2 and amino acids 1-531 of NCBI accession number NP_{—}004760.1), (c) […] a stably transfected 3T3 cell line expressing the full-length mouse ASIC3 channel (3T3/mASIC3; amino acids 1-530 of NCBI accession number NP_{—}892045.2), and (d) a 3T3 cell line stably transfected to co-express full length mouse ASIC1a and mouse ASIC3 (3T3/mASIC1/3; amino acids 1-526 of NCBI accession number NP_{—}033727 and amino acids 1-530 of NCBI accession number NP_{—}892045.2). Antibody binding was determined using flow cytometry (FACS).
(§2) To perform the FACS binding experiments, adherent cells were collected with cold Millipore Accutase 3-5 minutes, spun and resuspended in ice-cold FACS buffer (PBS, 2% HI-FBS and 0.09% Na-azide). Anti-ASIC1 antibody at final concentrations of 10 nM was added for 20-30 minutes on ice. Cells were washed with 900 μL ice-cold FACS buffer, spun, and resuspended in 100 μL ice-cold FACS buffer. A secondary antibody which recognizes human Fc (Jackson Immuno Research, #109-136-098) and is conjugated to allophycocyanin, was then added to the cell mixture at a final concentration of 2.5 ug/mL. After incubating for 20 minutes on ice, the cells were washed and resuspended in FACS buffer, then sorted and analyzed on a flow cytometer (FACSCanto II, BD Biosciences, San Jose, Calif.) to determine relative binding by the candidate antibodies to the tested cell lines. Histograms of cells stained with anti-ASIC1 antibodies were compared with those of cells stained with secondary antibody alone. Percentage of ASIC1 signal over secondary antibody alone was calculated using FlowJo software (Tree Star, Ashland, Oreg.).

[5] = target: T4, human ASIC1/ASIC3 channels …; assay: FACS, 3T3/hASIC1/3 cells, 10 nM antibody
From the text: as §1, §2

apparent IC50, human ASIC1 current, Q-Patch (human ASIC1 [1]) [nM]	EC50 (human ASIC1 [2]) [nM]	Current inhibition (%) at 100 nM antibody, Q-Patch, pH 6.0 (human ASIC1 [3]) [%]	binding result (mouse ASIC1a)	calculated IC50, inhibition of human ASIC1 current, Port-a-Patch (human ASIC1 [1]) [nM]	FLIPR Dose Curve, pH 5.0 % Block (human ASIC1 [4]) [%]	FLIPR Dose Curve, pH 5.5 % Block (human ASIC1 [4]) [%]	FLIPR Dose Curve, pH 5.5 IC50 (human ASIC1 [4]) [nM]	binding result (human ASIC3)	binding result [5]	Binder
≤ 10	1	72	binds	–	–	–	–	–	–	H4H6366P (antibody, human IgG4, V domains shown) VH: EVQLVESGGDLIQPGGSLRLSCIASGFTFRGYAMSWVRQAPGEGLDWVSGISSGGGNTYYADSVKGRFTISRDNSKNTLYLQMNSLRVEDTAVYYCAKDRGGVRDFYYGLDVWGQGTTVTVSS VL: DIQMTQSPSTLSASVGDRVTITCRASQSIYSWLAWYQQKPGKAPKLLIYKASSLESGVPSRFSGSGSGTDFTLTISSLQPDDFTTYYCQQYLSYSRTFGQGTKVEIK
< 1	0.55	100	binds	0.86	48	78	0.6	–	–	H1M6718N (antibody, mouse IgG1, V domains shown) VH: EVQLLESGGGLVQPGGSLRLSCAASGFTFSSFAMSWVRQAPGKGLEWVSGISGSGGGTHYADSVKGRFTISRDNSKNMVYLQMNSLRAEDTAAYYCAKEAYKWQPWGQGTLVTVSS VL: DIQMTQSPSTLSASVGDRVIITCRASQRISSWLAWYQQKPGKAPNLLIYKASILESGVPSRFSGSGSGTEFTLTISSLQPDDFATYYCQQYNSYSYTFGQGTKLEIK
< 1	0.72	97	binds	–	–	–	–	–	–	H1M7101N (antibody, mouse IgG1, V domains shown) VH: EVQLLASGGGLVQTGGSLRLSCAASGFTFSSFAMSWVRQAPGKGLEWVSGISGSGGSTYYADSVKGRFTISRDNSKNTLYLQMNSLRAEDTAAYYCAKEAYKWQPWGQGIRVTVSS VL: DIQMTQSPSTLSASVGDRVTITCRASQSISSWLAWYQQKPGKAPNLLIYKTSNLESGVPSRFSGSGSGTEFTLTISSLQPDDFATYYCQQYNSYSYTFGQGTKLEIK
–	0.023	–	–	–	25	37	1.1	binds	binds	H1M6716N (antibody, mouse IgG1, V domains shown) VH: QVQLVQSGAEVKKPGASVKVSCKASGYTFTIYDINWVRQATGQGLEWMGWMNPRSGSTGYSQKFQGRVTMTRNTSINTAFMELSSLRSEDTAVYYCVRGQLVLGYWGQGTLVTVSS VL: not shown
